Experimental findings from article PMC8777168 (2022) are described below.

First the molecules themselves.
B1: STUB1, expressed from a plasmid in 293T cells [not stated] / MIF in 293T cells [not stated] (parent complex)
chain 1: MKGKEEKEGGARLGAGGGSPEKSPSAQELKEQGNRLFVGRKYPEAAACYGRAITRNPLVAVYYTNRALCYLKMQQHEQALADCRRALELDGQSVKAHFFLGQCQLEMESYDEAIANLQRAYSLAKEQRLNFGDDIPSALRIAKKKRWNSIEERRIHQESELHSYLSRLIAAERERELEECQRNHEGDEDDSHVRAQQACIEAKHDKYMADMDELFSQVDEKRKKRDIPDYLCGKISFELMREPCITPSGITYDRKDIEEHLQRVGHFDPVTRSPLTQEQLIPNLAMKEVIDAFISENGWVEDY
chain 2: PMFIVNTNVPRASVPDGFLSELTQQLAQATGKPPQYIAVHVVPDQLMAFGGSSEPCALCSLHSIGKIGGAQNRSYSKLLCGLLAERLRISPDRVYINYYDMNAANVGWNNSTFA

The test covers variants of B1. As to the kind of experiment: co-immunoprecipitation (IP: Myc, IB: MIF) and western blot, band quantification; 293T cells transfected for 24 h with STUB1 mutation plasmids; triplicate experiments, mean ± SD; read off a plot.
With chain 1 S149A, the response was approximately 1 MIF/Input ratio.

For the variant chain 1 W147A, the response is approximately 1 MIF/Input ratio.

For chain 1 K143A, the response was approximately 0.22 MIF/Input ratio.

For chain 1 R66A, the response was approximately 0.25 MIF/Input ratio.
